T1: protein A56 of the oncolytic virus OTS-412 (vaccinia virus (OTS-412), UniProt P08714 17-315)
T1 construct: also called OTS-412-A56; protein A56 variant
T1 chain: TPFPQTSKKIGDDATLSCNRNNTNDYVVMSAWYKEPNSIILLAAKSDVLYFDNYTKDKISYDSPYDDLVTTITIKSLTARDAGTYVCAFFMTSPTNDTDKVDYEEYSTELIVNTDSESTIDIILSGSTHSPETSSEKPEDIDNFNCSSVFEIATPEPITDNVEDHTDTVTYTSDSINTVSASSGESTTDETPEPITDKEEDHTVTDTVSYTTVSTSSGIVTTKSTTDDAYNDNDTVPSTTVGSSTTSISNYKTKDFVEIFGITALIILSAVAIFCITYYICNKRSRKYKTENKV


Key:
[1] = biological target: T1, protein A56 of the oncolytic virus …; assay: flow cytometry, PC3 cells treated with OTS-412 (overlay, FIG. 74)
[2] = biological target: T2, protein A56 of the oncolytic virus WOTS-418 (vaccinia virus (WOTS-418, Western …, UniProt Q01218 17-314)); assay: flow cytometry, PC3 cells treated with WOTS-418
T2 construct: also called WOTS-418-A56; protein A56 variant

[3] = biological target: T2, protein A56 of the oncolytic virus …; assay: flow cytometry, PC3 cells treated with WOTS-418 (overlay, FIG. 75)
[4] = biological target: T1, protein A56 of the oncolytic virus …; assay: flow cytometry, MCF7 cells treated with OTS-412
[5] = biological target: T1, protein A56 of the oncolytic virus …; assay: flow cytometry, PC3 cells treated with OTS-412
[6] = biological target: T2, protein A56 of the oncolytic virus …; assay: flow cytometry, MCF7 cells treated with WOTS-418
[7] = biological target: T1, protein A56 of the oncolytic virus …; assay: flow cytometry, A549 cells treated with OTS-412
[8] = biological target: T2, protein A56 of the oncolytic virus …; assay: flow cytometry, A549 cells treated with WOTS-418

Binder | binding signal (flow cytometry, %) [1] | binding signal (flow cytometry, %) [2] | binding signal (flow cytometry, %) [3] | binding signal (flow cytometry, %) [4] | binding signal (flow cytometry, %) [5] | binding signal (flow cytometry, %) [6] | binding signal (flow cytometry, %) [7] | binding signal (flow cytometry, %) [8]
A56-02B08 (Ab16) (antibody, V domains shown) VH: QVQLQQSGPGLVKPSQTLSLTCAISGDSVSSNSAAWNWIRQSPSRGLEWLGRTYYRSKWYNDYAVSVKSRITINPDTSKNQFSLQLNSVTAVDTAVYYCAKSYAGPISYYYYGLDVWGQGTTVTVSS VL: QSALTQPASVSGSPGQSVTISCTGTSSDIGRYNLVSWYQQHPGKAPKLMIYGGSKRPSGVSNRFSGSNSDNTASLTISGLRAEDEADYYCSSYASSSTPYVFGTGTKVTVL | ≥ 60% | ≥ 70% | ≥ 60% | ≥ 80% | ≥ 70% | ≥ 80% |  | 
LakePharma variant3 (antibody, also called LP variant3; LPvariant03) VH: QVQLQQSGPELVKPGASMKLSCKASGYSFTGYTMNWVKQSHGKNLEWIGLINPYNGGTSYNQKFKGKATLTVDKSSSTAYMELLSLTSEDSAVYYCARSHYRYDYWYFDVWGAGTTVTVSSAKTTPPSVYPLAPGSAAQTNSMVTLGCLVKGYFPEPVTVTWNSGSLSSGVHTFPAVLQSDLYTLSSSVTVPSSTWPSETVTCNVAHPASSTKVDKKIVPRDCGCKPCICTVPEVSSVFIFPPKPKDVLTITLTPKVTCVVVDISKDDPEVQFSWFVDDVEVHTAQTQPREEQFNSTFRSVSELPIMHQDWLNGKEFKCRVNSAAFPAPIEKTISKTKGRPKAPQVYTIPPPKEQMAKDKVSLTCMITDFFPEDITVEWQWNGQPAENYKNTQPIMDTDGSYFVYSKLNVQKSNWEAGNTFTCSVLHEGLHNHHTEKSLSHSPGK VL: DVVMTQTPLSLPVSLGDQASISCRSSQSLVHSNGNTYLHWYLQKPGQSPKLLIYKVSNRFSGVPDRFSGSGSGTDFTLKISRVEAEDLGVYFCSQSTHVPPFTFGSGTKLEIKRADAAPTVSIFPPSSEQLTSGGASVVCFLNNFYPKDINVKWKIDGSERQNGVLNSWTDQDSKDSTYSMSSTLTLTKDEYERHNSYTCEATHKTSTSPIVKSFNRNEC |  | ≥ 90% |  |  | ≥ 90% |  | ≥ 93% | ≥ 93%
LakePharma variant4 (antibody, also called LP variant4; LPvariant04) VH: EVQLQQSGPELVKPGASMKLSCKASGYSFTGYTMNWVKQSHGKNLEWIGLINPYNGGTSYNQKFKGKATLTVDKSSSTAYMELLSLTSEDSAVYYCARSHYRYDYWYFDVWGAGTTVTVSSAKTTPPSVYPLAPGSAAQTNSMVTLGCLVKGYFPEPVTVTWNSGSLSSGVHTFPAVLQSDLYTLSSSVTVPSSTWPSETVTCNVAHPASSTKVDKKIVPRDCGCKPCICTVPEVSSVFIFPPKPKDVLTITLTPKVTCVVVDISKDDPEVQFSWFVDDVEVHTAQTQPREEQFNSTFRSVSELPIMHQDWLNGKEFKCRVNSAAFPAPIEKTISKTKGRPKAPQVYTIPPPKEQMAKDKVSLTCMITDFFPEDITVEWQWNGQPAENYKNTQPIMDTDGSYFVYSKLNVQKSNWEAGNTFTCSVLHEGLHNHHTEKSLSHSPGK VL: DVVMTQTPLSLPVSLGDQASISCRSSQSLVHSNGNTYLHWYLQKPGQSPKLLIYKVSNRFSGVPDRFSGSGSGTDFTLKISRVEAEDLGVYFCSQSTHVPPFTFGSGTKLEIKRADAAPTVSIFPPSSEQLTSGGASVVCFLNNFYPKDINVKWKIDGSERQNGVLNSWTDQDSKDSTYSMSSTLTLTKDEYERHNSYTCEATHKTSTSPIVKSFNRNEC |  | ≥ 90% |  |  | ≥ 90% |  | ≥ 93% | ≥ 93%

— patent publication US20220389085A1 (BIONOXX, published 2022)
